Assay results: patent publication US10106582B2, “Complex-formation-modulating agents and uses therefor” (Factor Therapeutics Limited, priority 2012, dated 2018)
Where no end group is shown, it is not given here.

Target: T1, IGF-II (Homo sapiens, UniProt P01344)
T1 construct: purchased GroPep
Assay: VN-peptide array: binding of IGF-II to immobilized overlapping 16-mer VN peptides
Settings: relative spot intensity on VN-peptide array after IGF-II incubation, vs average intensity of negative controls (TotalLab)
Excerpt: (§1) The inventors designed small-molecule VN-peptides that could potentially disrupt the formation of the IGF-I:IGFBP:VN trimeric or the IGF-II:VN dimeric complexes by binding to the IGFBPs and/or IGF-II and preventing their association with VN within the complex. To design peptides, the binding sites of IGFBP-3/-5 and IGF-II on VN were first determined using VN-peptide arrays. The entire VN protein sequence, excluding the signal peptide (residues 1-19), was divided into overlapping 16-mer peptides with 3AA frameshift/offset (for peptide sequences refer to Table 6) and immobilized onto cellulose membranes (peptide spotting was outsourced to PepMetric Technologies Inc). For a schematic of the arrangement of VN peptides and controls refer to FIG. 2. The resultant peptide arrays were incubated either with IGFBP-3, IGFBP-5 or IGF-II ligands, probed with the respective antibodies, the membranes developed using ECL, and imaged using the ChemiDoc™ XRS system (BioRad). The spots on the membrane were analysed using TotalLab array quantification software (TotalLab Ltd, Newcastle, England) identifying positive peptide spots by comparing each spot to the combined intensities of the negative controls.
(§2) The entire VN protein sequence, excluding the signal peptide (residues 1-19), was divided into overlapping 16-mer peptides with 3 amino acid (AA) frameshift/offset. This yielded 148 overlapping peptides covering the entire VN sequence (residues 20-478) (Table 6) with a resolution of 3 AA. Peptide synthesis and spotting onto a cellulose membrane were outsourced to PepMetric Technologies Inc. (Richmond, BC, Canada). For a diagrammatic illustration of the strategy used to divide an example amino acid sequence into peptides and to spot them onto the membrane, please refer to http://www.pepmetric.com/html/Pep-Overlap.html. The VN-overlapping peptides were generated using FMOC (9-fluorenylmethoxycarbonyl) Solid-Phase SPOT synthesis onto PEG-grafted amine-functionalized cellulose membrane (Whatman® 540 filter paper). The peptides were spotted onto the cellulose membrane in a 10×16 grid with each peptide being 10˜50 nM in concentration with >70% purity. Finally, these membranes were acetylated in order to cap the free ends of the spotted peptides preventing them from degradation during shipping and storage.
(§3) Along with the VN-peptides these membranes were also spotted with a positive control (i.e., universal binding peptides tested by the manufacturer to be positive for antibodies from goat, mouse, rat and chicken) and a negative control (ie. non-binding peptides as well as BSA) controls. For a schematic of the arrangement of VN-peptides and controls refer to FIG. 2 and for the sequence of each peptide corresponding to the grid number refer to Table 6. Four such replicate membranes were prepared and stored at room temperature in a clip sealed plastic bag. Long-term storage was at −20° C.
(§4) Methanol or ethanol was used to enhance the rehydration of peptide spots that might be hydrophobic. The peptides spotted onto the membranes were activated by incubating in 3 mL of 70% ethanol for five mins. The membranes were subsequently washed three times, 10 minutes each, in 10 mL TBS (Tris Buffered Saline; 8 g NaCl, 0.2 g KCl and 6.1 g Tris Base into 1000 mL of milliQ water, pH 7) with gentle rocking. Membrane blocking was performed by incubating in 10 mL casein-based membrane blocking buffer (MBS; Sigma-Aldrich) overnight at 4° C. The following day, the membranes were washed twice, 10 minutes each, in 10 mL TBS-T (TBS+0.05% Tween-20; pH 7).
(§5) Ligands used to test binding to VN-peptides were IGFBP-3, IGFBP-5 and IGF-II. For ligand binding, four separate solutions of 1 μg/mL ligand in 10 mL MBS buffer were prepared and each membrane was incubated in one of the four ligand solutions overnight at 4° C., with gentle rocking. […] The following day, the membranes were washed three times, 10 minutes each, in 10 mL TBS-T. […]

T1 sequence (P01344 25-91 limits assumed): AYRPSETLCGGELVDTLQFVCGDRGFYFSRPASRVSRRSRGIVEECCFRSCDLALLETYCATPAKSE

Sequence | Intensity (against −ve control), IGFII
DELCSYYQSCCTDYTA (not fully specified (N-terminus); cysteine pairing not given here) [Peptide 1B] | 12-IGFII fold-change
LFSSEESNLGANNYDD (not fully specified (N-terminus)) [Peptide 7A] | 17-IGF-II fold-change
SEESNLGANNYDDYRM (not fully specified (N-terminus)) [Peptide 7B] | 18-IGF-II fold-change
SNLGANNYDDYRMDWL (not fully specified (N-terminus)) [Peptide 7C] | 12-IGF-II fold-change
TRQPQFISRDWHGVPG (not fully specified (N-terminus)) [Peptide 6C] | 1.5-IGFII fold-change

Target: T2, IGFBP-3 (Homo sapiens, UniProt P17936)
T2 construct: purchased GroPep
Assay: VN-peptide array: binding of IGFBP-3 to immobilized overlapping 16-mer VN peptides
Settings: relative spot intensity on VN-peptide array after IGFBP-3 incubation, vs average intensity of negative controls (TotalLab)
Excerpt: as §1, §2, §3, §4, §5

T2 sequence (P17936 28-291): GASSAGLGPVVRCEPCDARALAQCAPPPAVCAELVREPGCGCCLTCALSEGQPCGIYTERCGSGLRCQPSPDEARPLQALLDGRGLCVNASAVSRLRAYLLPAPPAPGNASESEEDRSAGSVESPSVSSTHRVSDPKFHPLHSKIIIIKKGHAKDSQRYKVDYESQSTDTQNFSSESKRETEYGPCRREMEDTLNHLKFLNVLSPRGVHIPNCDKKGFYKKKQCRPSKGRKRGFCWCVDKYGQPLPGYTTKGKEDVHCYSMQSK

Sequence | Intensity (against −ve control), BP3
DSWEDIFELLFWGRTS (not fully specified (N-terminus)) [Peptide 5D] | 2.5-BP3 fold-change
FAMMQRDSWEDIFELL (not fully specified (N-terminus)) [Peptide 5B] | 4.5-BP3 fold-change
FEHFAMMQRDSWEDIF (not fully specified (N-terminus)) [Peptide 5A] | 1.5-BP3 fold-change
KGKQYWEYQFQHQPSQ (not fully specified (N-terminus)) [Peptide 4A] | 6-BP3 fold-change
MQRDSWEDIFELLFWG (not fully specified (N-terminus)) [Peptide 5C] | 4.5-BP3 fold-change
QYWEYQFQHQPSQEEC (not fully specified (N-terminus)) [Peptide 4B] | 12-BP3 fold-change
